In publication PMC11417369, “DNA sequence and chromatin differentiate sequence-specific transcription factor binding in the human malaria parasite Plasmodium falciparum”:

B1: XGTACX_site3586 (dsDNA)
DNA 1: TATACATACATTAGACGTACACATTTTACCTACACC
DNA 2: GGTGTAGGTAAAATGTGTACGTCTAATGTATGTATA
B2: XGTACX_site6396 (dsDNA)
DNA 1: CCTATAATTAGGGGTAGTACACAAAAAAAAAAAAAA
DNA 2: TTTTTTTTTTTTTTGTGTACTACCCCTAATTATAGG
B3: XGTACX_site4956 (dsDNA)
DNA 1: AATAAATGGAAAAGGTGTACACAAAAAAAAGGGAAA
DNA 2: TTTCCCTTTTTTTTGTGTACACCTTTTCCATTTATT
B4: XGTACX_site4176 (dsDNA)
DNA 1: ATAAATTTAAATAGGAGTACACAGCTTTATATTTTG
DNA 2: CAAAATATAAAGCTGTGTACTCCTATTTAAATTTAT
B5: XGTACX_site6887 (dsDNA)
DNA 1: TATTTTCCATGAGGTAGTACACATTAAAAAATCGTT
DNA 2: AACGATTTTTTAATGTGTACTACCTCATGGAAAATA
B6: XGTACX_site718 (dsDNA)
DNA 1: GTATTAATTTTAAGGTGTACGCAAAAAATTTAATTT
DNA 2: AAATTAAATTTTTTGCGTACACCTTAAAATTAATAC
B7: XGTACX_site5429 (dsDNA)
DNA 1: ATGGACATCTATTGTTGTACACATTTTCCCATAACA
DNA 2: TGTTATGGGAAAATGTGTACAACAATAGATGTCCAT
B8: XGTACX_site96 (dsDNA)
DNA 1: TGGAACCATAAAAAGTGTACACATATAAAAAATATG
DNA 2: CATATTTTTTATATGTGTACACTTTTTATGGTTCCA
B9: XGTACX_site6231 (dsDNA)
DNA 1: ATGTTTTATAAAAGGCGTACACATATATTTAAGTAA
DNA 2: TTACTTAAATATATGTGTACGCCTTTTATAAAACAT
B10: XGTACX_site3746 (dsDNA)
DNA 1: ATATAAAATATTACGTGTACACATAAATAAAAATAA
DNA 2: TTATTTTTATTTATGTGTACACGTAATATTTTATAT
B11: XGTACX_site1704 (dsDNA)
DNA 1: CTCGTATATATAATACGTACATATTATATATATATA
DNA 2: TATATATATATAATATGTACGTATTATATATACGAG
B12: XGTACX_site7607 (dsDNA)
DNA 1: AATATACAATAAAGGTGTACACATATATGATGCAAG
DNA 2: CTTGCATCATATATGTGTACACCTTTATTGTATATT
B13: XGTACX_site3301 (dsDNA)
DNA 1: TTTTCTTTTTGTTCGTGTACACACATGAAATTTATA
DNA 2: TATAAATTTCATGTGTGTACACGAACAAAAAGAAAA
B14: XGTACX_site7745 (dsDNA)
DNA 1: GGGGACGCGGGTGGGGGTACTCACACTATGCAAAAT
DNA 2: ATTTTGCATAGTGTGAGTACCCCCACCCGCGTCCCC
B15: XGTACX_site2835 (dsDNA)
DNA 1: GGGGGGATGAGATATTGTACTTTTTAGGAAAGTGTA
DNA 2: TACACTTTCCTAAAAAGTACAATATCTCATCCCCCC
B16: XGTACX_site820 (dsDNA)
DNA 1: ACAATTGAAGAAATACGTACATAAAGAAAAACTAGT
DNA 2: ACTAGTTTTTCTTTATGTACGTATTTCTTCAATTGT
B17: XGTACX_site4991 (dsDNA)
DNA 1: TAAAATAATATATGGTGTACACAAAAGTATAAATAA
DNA 2: TTATTTATACTTTTGTGTACACCATATATTATTTTA
B18: XGTACX_site7325 (dsDNA)
DNA 1: TTTTTTTTATTTTGTTGTACGCTTATTTGTATATAT
DNA 2: ATATATACAAATAAGCGTACAACAAAATAAAAAAAA

Each binder was assayed against T1, AP2-G D1 (Plasmodium falciparum, UniProt Q8I5I9 2123-2245) (assay: gcPBM; about 25 ug protein; PBS, 1% milk, 0.2 mg/ml BSA, salmon testes DNA, 0.03% Triton X-100). Details: tags: N-terminal GST (pGEX-4T-1), kept; label: surface-attached array probe.
T1 sequence: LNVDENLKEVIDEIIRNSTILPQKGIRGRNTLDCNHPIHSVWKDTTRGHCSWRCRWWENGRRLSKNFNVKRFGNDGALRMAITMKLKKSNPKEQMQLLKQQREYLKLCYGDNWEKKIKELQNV

| Binder | binding signal |
| --- | --- |
| B1 | 12.8 ln median PBM intensity, better of two orientations |
| B2 | 12.8 ln median PBM intensity, better of two orientations |
| B3 | 12.8 ln median PBM intensity, better of two orientations |
| B4 | 13 ln median PBM intensity, better of two orientations |
| B5 | 12.8 ln median PBM intensity, better of two orientations |
| B6 | 13.1 ln median PBM intensity, better of two orientations |
| B7 | 13.1 ln median PBM intensity, better of two orientations |
| B8 | 12.8 ln median PBM intensity, better of two orientations |
| B9 | 13.5 ln median PBM intensity, better of two orientations |
| B10 | 13 ln median PBM intensity, better of two orientations |
| B11 | 12.9 ln median PBM intensity, better of two orientations |
| B12 | 12.8 ln median PBM intensity, better of two orientations |
| B13 | 13 ln median PBM intensity, better of two orientations |
| B14 | 13 ln median PBM intensity, better of two orientations |
| B15 | 13.2 ln median PBM intensity, better of two orientations |
| B16 | 12.9 ln median PBM intensity, better of two orientations |
| B17 | 13.2 ln median PBM intensity, better of two orientations |
| B18 | 12.8 ln median PBM intensity, better of two orientations |
